Assay results: patent US20090004212A1, “Tumour vaccines for MUC1-positive carcinomas” (priority 1997, published 2009)
Several values for one entry are separate records, joined by “and”; a condition that tells them apart may be missing. Equal entries are not always repeated. Values belong to the molecule of their own block, whether it stands above or below them. No end group written: not given here. O‑glycan = not defined here

Experiments:
[1] = target: T1, human 20S immunoproteasomes (Homo sapiens, UniProt P28062+P28065+P40306); assay: In vitro proteolysis of MUC1 repeat peptides and glycopeptides by immunoproteasomes; format: biochemical; conditions: for AHG 8 to -11 / PAP8 to -11 / SAP8 to -11: 8- to 11-meric fragments with this N-terminus, % of total 8- to 11-mers; for AVERAGE FRAGMENT LENGTH / NUMBER OF FRAGMENTS: digest by immunoproteasomes; for NUMBER OF FRAGMENTS: HPLC and MALDI-MS; for % of glycopeptide: glycosylated 8- to 11-meric fragments relative to total 8- to 11-mers; for 8-11 mers (%): relative to total amount of digestion products of immunoproteasomal cleavage
T1 construct: purchased Immatics Biotechnologies (Tübingen, Germany)
Procedure: A 1 mg/ml solution of immunoproteasomes prepared according to a published protocol (20) was purchased from Immatics Biotechnologies (Tübingen, Germany) and stored frozen at −80° C.
Glycopeptides were incubated with 10 μg of human 20S immunoproteasomes (Immatics) for […], at 37° C., in 10 μl of digestion buffer (20 mM HEPES/KOH, pH 7.6 containing 2 mM Mg(CH3COO)2 and 1 mM DTT) as described (13). Digestion was stopped after 24 h by freezing the sample at −80° C. Human cathepsin-L was purchased from Sigma (Munich, Germany) and solubilized in 0.1 M sodium acetate, pH 5.5, containing 1 mM EDTA and 1 mM dithiothreitol (12). About 5 mU of enzyme were added to sialoglycopeptide substrates SGGP1 to SGGP5 (75-100 μM) in a total volume of 20 μl. The reaction mixtures were incubated at 37° C. for 24 h and 1 μl of trifluoroacetic acid was added to stop the reaction. The reaction products were cleaned by solid-phase extraction on ZipTipC18 pipette tips and 0.5 μl aliquots were applied onto the MALDI target for mass spectrometric analysis. Kinetic studies with the non-glycosylated 100-mer P1 were performed under the same conditions and the products were chromatographed on HPLC for purification and quantification.

[2] = tested on: DC2.4 mouse dendritic cells; assay: Cellular processing and cross-presentation in mouse dendritic cell line, peptides eluted from exosomal MHC; format: cell-based
Procedure: Poly-lactic acid based vesicles were generated mixing two solutions: Solution A: 200 nmol of P2 peptide (1 mg) resolved in 3% cold water solution of poly-vinyl alcohol; Solution B: 5% poly-lactic acid in a mixture of ethanol and acetone (9:1, v/v). Solution B (30 ml) was slowly added to solution A (150 ml) under constant mixing and stirring overnight at room temperature. The next day the mixture was centrifuged at 10.000×g for 10 min and washed three times with PBS (200 ml), followed by centrifugation steps as mentioned previously. The generated vesicles were resuspended in 330 μl of PBS and added to media of 4×108 DC2.4 mouse dendritic cells growing confluent in nine cell culture flasks (300 cm^2). The cells were grown as usual, but in exosome-depleted medium.
Cells were incubated with PLA-vesicles for 24 h at 37° C. and 5% CO2. The cell culture supernatant was collected and exosomes were isolated by ultracentrifugation (see below). Isolated exosomes were resuspended in 100 μl 0.1% TFA/H2O. Acidification of exosomes denatures tertiary MHC complex and releases bound peptide epitopes. The solution was shortly spun and injected on a HPLC narrow-bore ODS column for separation of eluted peptides and glycopeptides. Fractions were collected manually, dried and analyzed by MALDI-TOF-MS as described. Molecular masses of detected ions were analyzed by the FindPep software and by nanospray ESI-MS/MS analyses.
Exosomes were isolated from FCS or cell culture supernatant by subsequent centrifugation steps: 10 min/1200 g; 30 min/10000×g; 30 min/20.000×g; and 60 min/[…]. The exosomes were pelleted in the final centrifugation step, washed with PBS and used for further analyses. For the depletion of FCS from exosomes, exosomes from serum were pelleted by ultracentrifugation at 110.000×g for 1 h.

HLA-A0201 = target: T2, HLA-A0201 (Homo sapiens, UniProt P04439, D140Y/D185E/D98H/E176V/E277Q/G131W/G231S/I119V/I121R/I166T/I218V/L300P/L318F/N151K/N90K/P208A/P217A/Q86G/Q94H/R138H/R169H/T345S); assay: MHC stabilization assay on T2 cells; format: binding; conditions: for ligation strength (binding to HLA-A0201): T2 cells, 100 μg peptide, 16 h, W6/32 antibody, FACS; for change of ligation strength by introduction of GalNAc: glycosylated versus non-glycosylated form
T2 construct: endogenous in cells; host or cells: T2 cell line (TAP-deficient)
Procedure: MHC stabilization assay is based on the increased affinity of HLA-A, -B, -C specific monoclonal W6/32 antibody for the stabilized conformation of MHC molecules after binding of a peptide ligand. The T2 cells express empty MHC molecules with short half-life.
For MHC stabilization assay T2 cells were grown in IMDM medium supplemented with 2% FCS. T2 cells were washed in PBS from the residual serum, and resuspended at 1×10^6/ml of IMDM supplemented with 0.1% FCS and 25 mM HEPES. Half of a million of cells were incubated in 48-well cell culture plate with 1 μg of […]2-microglobulin and 100 μg of peptide for 16 h at 27° C. and 8% CO2. Cells were washed with 5 ml PBS, centrifuged at 180×g for 5 min and the pellet was resuspended in 10 μl PBS containing 1 μg of W6/32 antibody and incubated at 4° C. for 30 minutes.
Subsequently, cells were washed in PBS with 1% BSA (3×5 ml) and the pellet was resuspended in 50 μl of secondary anti-mouse Alexa 488 antibody (1:1000 in PBS with 0.1% BSA), incubated for 30 minutes in the dark, washed with PBS (3×5 ml) and resuspended in 500 μl of PBS. Binding of the W6/32 antibody to MHC class I molecules was analyzed by FACS on the Beckman Coulter ADCXL4C flow cytometer. As a positive control hepatitis B virus core antigen HBVc18-27 P6Y˜C ([…]) was used. As a negative control T2 cells were used, to which no peptide was added.
Relative binding capacities of the peptides were expressed as the percent of the positive control signal (100%), normalized to the negative control (0%). A mean fluorescence that was at least 10% higher than the negative control level was considered positive binding.

T2 target cells = assay: CTL activity against peptide-loaded T2 target cells (CFSE/7-AAD); format: cell-based, human; conditions: T2 cells loaded with 10 μg/ml peptide, 6-hour incubation
Procedure: (§1) Peripheral blood mononuclear cells (PBMCs) were isolated from buffy coats of HLA-A*0201 healthy donors by Ficoll-Hypaque (MP Biomedicals, Solon, Ohio) density gradient centrifugation.
(§2) Dendritic cells (DCs) were generated by culturing adherent monocytes for 6 days in AIM-V medium (Invitrogen, Carlsbad, Calif.) supplemented with 500 U/mL granulocyte macrophage colonystimulating factor (GM-CSF, R&D, Minneapolis, Minn.) and 1000 U/mL interleukin (IL)-4 (R&D), and then matured for 48 hours with a cocktail of cytokines consisting of 10 ng/mL of each, tumor necrosis factor (TNF)-alpha, IL-6, IL-1beta (R&D), and 1 μg/mL prostaglandine E2 (Sigma, St. Louis, Mo.). […] DCs pulsed with single peptides were combined, washed, resuspended and used as stimulator cells. They were added to the autologous lymphocyte fraction in 24-well Linbro plates (ICN, Aurora, Ohio) at a ratio of 1:10 at culture initiation and fed in RPMI 1640 media supplemented with 10% human AB serum, 10 ng/ml rhIL-6 (R&D) and 5 ng/ml rhIL-12 (PreproTech, Rocky Hill, N.J.). On day 10 and thereafter every 9 days, T cells were restimulated at a ratio of 1 DC to 20 T cells, in RPMI 1640 media supplemented with 10% human AB serum, rhIL-2 and rhIL-7 (20 U/ml each, R&D).
(§3) Antigen Specificity was Assessed after 4 Stimulations. Three Days Past Each stimulation cell supernatant was collected and IFNy secretion was quantified using OptElA human IFNy ELISA kit (BD). CD8+ T-cells were enriched using magnetic microbeads (human CD8+ T Cell Isolation Kit II from Miltenyi Biotech, Auburn, Calif.) according to the manufacture's instructions and analyzed by flow cytometry for intracellular IFN-gamma and TNF-alpha production after a final 5-hour restimulation with peptide-loaded DCs in the presence of monensin (Golgi Stop, BD; 21). CTL activity was determined 3 days after the last restimulation. […] They were washed, labeled with 5- (and 6)-carboxyfluorescein diacetate succinimidyl ester (CFSE) according to the manufacture's instructions (Immunochemistry, Bloomington, Minn.) and added to a 96-well plate in duplicates at 5000 cells/well. CFSE labeled T2 cells not loaded with peptides were used as controls. CD8+ T effector cells were added at various E:T ratios for a 6-hour incubation at 37° C. Target cell death was detected by adding 7-amino-actinomycin (7-AAD, Immunochemistry) to each well 10 min before data analysis by flow cytometry and analysis was performed according to the manufacture's instructions (22).

CD8+ T-cells = assay: IFN-gamma and TNF-alpha production by peptide-primed T-cells; format: cell-based, human; conditions: after last cycle of restimulation, 4 weeks of in vitro culture
Procedure: as §1, §2, §3

AHG 8 to -11 [1]: 26% | PAP8 to -11 [1]: 47% | SAP8 to -11 [1]: 27% | AVERAGE FRAGMENT LENGTH [1]: 11.6 | NUMBER OF FRAGMENTS [1]: 46 | % of glycopeptide [1]: 26% | 8-11 mers (%) [1]: 79%
Molecule: AHGVTSAPESRPAPGSTAPPA [GP5] (AHGVT(O‑glycan)SAPESRPAPGSTAPPA; not fully specified; reading uncertain; also: glycan structure not given here; listed as Homo sapiens) [MUC1 glycopeptide, glycosylated threonine within the VTS motif]

AHG 8 to -11 [1]: 55% | PAP8 to -11 [1]: 3% | SAP8 to -11 [1]: 42% | AVERAGE FRAGMENT LENGTH [1]: 10.6 | NUMBER OF FRAGMENTS [1]: 46 | % of glycopeptide [1]: 98% and 96% | 8-11 mers (%) [1]: 35%
Molecule: AHGVTSAPESRPAPGSTAPPA [GP6] (AHGVTSAPES(O‑glycan)RPAPGSTAPPA; reading uncertain; also: glycan structure not given here; listed as Homo sapiens) [MUC1 glycopeptide, glycosylated within the ESR motif]

AVERAGE FRAGMENT LENGTH [1]: 10.5 | NUMBER OF FRAGMENTS [1]: 46 | % of glycopeptide [1]: 21% | 8-11 mers (%) [1]: 35%
Molecule: AHGVTSAPESRPAPGSTAPPA [GP8] (AHGVTS(O‑glycan)APESRPAPGSTAPPA; reading uncertain; also: glycan structure not given here; listed as Homo sapiens) [chemically synthesized MUC1 derived glycopeptide, glycosylation site not readable]

AVERAGE FRAGMENT LENGTH [1]: 11.6 | NUMBER OF FRAGMENTS [1]: 31 | % of glycopeptide [1]: 0% | 8-11 mers (%) [1]: 50%
Molecule: AHGVTSAPESRPAPGSTAPPA [P4] (fragment of digested MUC1; listed as Homo sapiens) [Peptide P4]

Molecule: APESRPAP (fragment of MUC1; listed as Homo sapiens)
class I binding activity [2]: considerable class I binding activity

Molecule: APESRPAPG (fragment of MUC1; listed as Homo sapiens)
class I binding activity [2]: considerable class I binding activity

Molecule: APESRPAPGS (fragment of MUC1; listed as Homo sapiens)
class I binding activity [2]: considerable class I binding activity

AHG 8 to -11 [1]: 8% | PAP8 to -11 [1]: 31% | SAP8 to -11 [1]: 61% | AVERAGE FRAGMENT LENGTH [1]: 11.7 | NUMBER OF FRAGMENTS [1]: 61 | % of glycopeptide [1]: 40% and 39% | 8-11 mers (%) [1]: 29%
Molecule: HGVTSAPESRPAPGSTAPPA [GP7]

Molecule: PESRPAPGS (fragment of MUC1; listed as Homo sapiens)
class I binding activity [2]: considerable class I binding activity

Molecule: PESRPAPGST (fragment of MUC1; listed as Homo sapiens)
class I binding activity [2]: considerable class I binding activity

Molecule: S(-GalNAc)APDTRPAPG ({Ser(GalNAc)}-APDTRPAPG)
ligation strength (binding to HLA-A0201) (HLA-A0201): strongly reduce binding affinity in comparison with the corresponding nonglycosylated peptide

Molecule: SAPES(GalNAc)RPAPG [Peptide F3]
lysis of peptide-pulsed T2 target cells by induced CD8+ T cells (T2 target cells): only minimal increased cell lysis above the background lysis | CD8+ cells producing IFN-γ (CD8+ T-cells): 18.1% | TNF-α production by CD8+ cells (CD8+ T-cells): not TNF-α

Molecule: SAPESRPAPG (fragment of MUC 1; listed as Homo sapiens)
class I binding activity [2]: considerable class I binding activity

Molecule: SAPESRPAPGS (fragment of MUC1; listed as Homo sapiens)
class I binding activity [2]: considerable class I binding activity

Molecule: ST(-GalNAc)APPAHGVT ({Ser-T(GalNAc)}-APPAHGVT)
ligation strength (binding to HLA-A0201) (HLA-A0201): strongly reduce binding affinity in comparison with the corresponding nonglycosylated peptide

Molecule: STAPPAHGV [STA9]
ligation strength (binding to HLA-A0201) (HLA-A0201): strongest binders | change of ligation strength by introduction of GalNAc (HLA-A0201): reducing it to the level of the negative control

Molecule: STAPPAHGVT [STA10]
ligation strength (binding to HLA-A0201) (HLA-A0201): strongest binders | change of ligation strength by introduction of GalNAc (HLA-A0201): reducing it to the level of the negative control | class I binding activity [2]: considerable class I binding activity

AVERAGE FRAGMENT LENGTH [1]: 17.5 | NUMBER OF FRAGMENTS [1]: 105 | % of glycopeptide [1]: 0% | 8-11 mers (%) [1]: 26%
B1: A(HGVTSAPESRPAPGSTAPPA)x3 (peptide, listed as Homo sapiens)
chain: AHGVTSAPESRPAPGSTAPPAHGVTSAPESRPAPGSTAPPAHGVTSAPESRPAPGSTAPPA
modifications: Fragment of digested MUC1
